Data from article PMC5493754, “Myosin 7 and its adaptors link cadherins to actin” (Nature Communications, 2017).
Values belong to the binder of their own block, whether it stands above or below them.

B4: Harmonin-a PDZ2-end (domain or fragment, human, UniProt Q9Y6N9-1 194-552, looked up)
chain: GVRGSLGSPGNRENKEKKVFISLVGSRGLGCSISSGPIQKPGIFISHVKPGSLSAEVGLEIGDQIVEVNGVDFSNLDHKEAVNVLKSSRSLTISIVAAAGRELFMTDRERLAEARQRELQRQELLMQKRLAMESNKILQEQQEMERQRRKEIAQKAAEENERYRKEMEQIVEEEEKFKKQWEEDWGSKEQLLLPKTITAEVHPVPLRKPKYDQGVEPELEPADDLDGGTEEQGEQDFRKYEEGFDPYSMFTPEQIMGKDVRLLRIKKEGSLDLALEGGVDSPIGKVVVSAVYERGAAERHGGIVKGDEIMAINGKIVTDYTLAEAEAALQKAWNQGGDWIDLVVAVCPPKEYDDELTFF
notes: Harmonin-a1 (USH1C), human, residues 194-552 of UniProt Q9Y6N9-1; also called PDZ2-end (isoA); source: E. coli BL21 (DE3) Rosetta, purified (Glutathione Sepharose 4B, size-exclusion chromatography)

What was measured:
Conditions in all cases: both partners purified
[1] = target: T1, Myosin 7b MF2 (human, UniProt Q6PIF6 1605-2116); experiment: ITC; Microcal iTC200, 10 °C; 20 mM HEPES pH 7.0, 100 mM NaCl, 0.5 mM TCEP, 1 mM EGTA; single binding site model; GST removed from harmonin
T1 construct: also called M7b MF2; Myo7b MF2; source: E. coli (BL21-AI, BL21 (DE3) Rosetta or BL21-Gold (DE3)), purified (Histrap, CaptoQ, gel filtration)
T1 sequence (looked up): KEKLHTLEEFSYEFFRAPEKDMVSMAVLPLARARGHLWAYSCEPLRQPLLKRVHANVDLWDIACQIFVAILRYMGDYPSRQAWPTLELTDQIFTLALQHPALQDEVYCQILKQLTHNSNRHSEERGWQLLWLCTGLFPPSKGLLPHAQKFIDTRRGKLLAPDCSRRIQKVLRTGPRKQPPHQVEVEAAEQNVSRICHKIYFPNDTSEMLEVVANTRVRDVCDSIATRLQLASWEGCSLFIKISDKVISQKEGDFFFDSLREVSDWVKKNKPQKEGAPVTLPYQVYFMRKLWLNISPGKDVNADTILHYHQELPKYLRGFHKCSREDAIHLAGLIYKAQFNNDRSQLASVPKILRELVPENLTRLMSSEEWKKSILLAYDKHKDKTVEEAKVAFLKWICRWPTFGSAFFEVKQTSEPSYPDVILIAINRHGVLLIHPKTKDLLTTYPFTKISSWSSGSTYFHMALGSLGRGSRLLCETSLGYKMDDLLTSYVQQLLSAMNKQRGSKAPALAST

[2] = target: T2, Myosin 7a MF2 (human, UniProt Q13402-1 1702-2215); experiment: as above
T2 construct: Myosin 7a, human, C-terminal MyTH4-FERM domain (MF2), residues 1702-2215 of UniProt Q13402-1; Thrombin site of the vector replaced by an SSG linker; also called M7a MF2; Myo7a MF2; source: E. coli (BL21-AI, BL21 (DE3) Rosetta or BL21-Gold (DE3)), purified (Histrap, CaptoQ, gel filtration)
T2 sequence (looked up): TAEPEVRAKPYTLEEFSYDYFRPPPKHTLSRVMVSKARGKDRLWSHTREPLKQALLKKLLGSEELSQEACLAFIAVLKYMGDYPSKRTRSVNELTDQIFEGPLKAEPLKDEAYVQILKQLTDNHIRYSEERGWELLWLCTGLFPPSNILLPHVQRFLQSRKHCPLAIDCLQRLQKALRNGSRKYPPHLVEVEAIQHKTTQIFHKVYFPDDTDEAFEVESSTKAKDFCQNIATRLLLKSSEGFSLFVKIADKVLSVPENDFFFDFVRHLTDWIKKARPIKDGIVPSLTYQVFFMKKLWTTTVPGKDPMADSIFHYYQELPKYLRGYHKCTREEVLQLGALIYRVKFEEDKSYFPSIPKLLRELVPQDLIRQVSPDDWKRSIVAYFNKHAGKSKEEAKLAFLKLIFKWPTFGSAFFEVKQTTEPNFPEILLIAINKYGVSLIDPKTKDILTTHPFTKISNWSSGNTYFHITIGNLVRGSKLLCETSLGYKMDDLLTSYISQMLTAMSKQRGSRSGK

[3] = target: T3, Harmonin NPDZ1 (GST removed, as used in ITC) (human, UniProt Q9Y6N9-1 1-197); experiment: as above
T3 construct: Harmonin-a1 (USH1C), human, residues 1-197 of UniProt Q9Y6N9-1; not shown: GST, N-terminal, cleaved
T3 sequence (looked up): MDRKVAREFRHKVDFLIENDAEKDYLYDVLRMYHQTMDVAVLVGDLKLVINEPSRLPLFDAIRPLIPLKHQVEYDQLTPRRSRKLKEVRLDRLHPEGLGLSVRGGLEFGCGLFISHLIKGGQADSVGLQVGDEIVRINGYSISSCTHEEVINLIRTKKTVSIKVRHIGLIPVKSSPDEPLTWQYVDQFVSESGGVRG

[4] = target: T4, YFP-Myosin 7b MF2 (human, UniProt Q6PIF6 1605-2116); experiment: MST; YFP-fused partner constant at 100 nM, non-fluorescent protein titrated (16 two-fold dilutions); 20 mM Hepes pH 7.0, 100 mM NaCl, 1 mM EGTA, 0.5 mM TCEP, 0.05% Tween 20; Monolith NT.115
T4 construct: Myosin 7b, human, MF2, residues 1605-2116 of UniProt Q6PIF6; pET14-YFP vector; also called ^YFPM7b MF2; source: E. coli (BL21-AI, BL21 (DE3) Rosetta or BL21-Gold (DE3)), purified (Histrap, CaptoQ, gel filtration)
T4 sequence (looked up): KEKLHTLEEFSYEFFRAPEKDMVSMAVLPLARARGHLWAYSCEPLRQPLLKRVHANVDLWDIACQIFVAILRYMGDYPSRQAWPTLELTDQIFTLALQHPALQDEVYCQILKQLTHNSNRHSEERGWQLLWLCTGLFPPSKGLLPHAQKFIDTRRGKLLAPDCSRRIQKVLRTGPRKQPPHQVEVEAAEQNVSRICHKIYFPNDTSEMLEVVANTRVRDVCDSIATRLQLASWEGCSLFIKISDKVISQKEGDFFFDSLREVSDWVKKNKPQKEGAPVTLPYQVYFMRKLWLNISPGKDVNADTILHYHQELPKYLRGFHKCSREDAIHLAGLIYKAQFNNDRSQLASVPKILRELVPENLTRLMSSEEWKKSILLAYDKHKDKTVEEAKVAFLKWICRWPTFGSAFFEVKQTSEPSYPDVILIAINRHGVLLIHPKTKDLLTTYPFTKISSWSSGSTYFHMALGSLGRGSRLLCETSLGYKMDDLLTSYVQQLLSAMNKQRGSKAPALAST

[5] = target: T4, YFP-Myosin 7b MF2; experiment: as above; remark: listed apart in the source
[6] = target: B4; experiment: as above
[7] = target: T5, YFP-Myosin 7a MF2 (human, UniProt Q13402-1 1702-2215); experiment: as above
T5 construct: Myosin 7a, human, MF2, residues 1702-2215 of UniProt Q13402-1; pET14-YFP vector; also called ^YFPM7a MF2; source: E. coli (BL21-AI, BL21 (DE3) Rosetta or BL21-Gold (DE3)), purified (Histrap, CaptoQ, gel filtration)
T5 sequence (looked up): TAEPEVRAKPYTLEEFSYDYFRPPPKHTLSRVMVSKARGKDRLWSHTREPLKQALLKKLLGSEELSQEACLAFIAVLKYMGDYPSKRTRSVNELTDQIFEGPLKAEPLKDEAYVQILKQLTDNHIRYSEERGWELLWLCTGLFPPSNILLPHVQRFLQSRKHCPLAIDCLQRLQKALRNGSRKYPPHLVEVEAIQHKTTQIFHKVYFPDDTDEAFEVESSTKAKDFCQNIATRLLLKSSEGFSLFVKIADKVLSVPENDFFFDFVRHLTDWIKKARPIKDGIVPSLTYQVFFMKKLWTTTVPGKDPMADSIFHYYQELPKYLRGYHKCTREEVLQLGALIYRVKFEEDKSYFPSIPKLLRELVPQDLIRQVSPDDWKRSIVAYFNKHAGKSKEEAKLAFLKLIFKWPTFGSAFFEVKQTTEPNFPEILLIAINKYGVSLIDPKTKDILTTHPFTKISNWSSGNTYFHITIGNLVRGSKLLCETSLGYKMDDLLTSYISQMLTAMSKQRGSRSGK

[8] = target: T6, YFP-FL-harmonin-ΔCter (human, UniProt Q9Y6N9-1 1-542); experiment: MST; as a1 but 150 mM NaCl (for FL-Harmonin-a); YFP-fused partner constant at 100 nM, non-fluorescent protein titrated
T6 construct: Harmonin-a1 (USH1C), human, residues 1-542 of UniProt Q9Y6N9-1; also called ^YFPFL ΔCter; source: E. coli BL21 (DE3) Rosetta, purified (Glutathione Sepharose 4B, size-exclusion chromatography)
T6 sequence (looked up): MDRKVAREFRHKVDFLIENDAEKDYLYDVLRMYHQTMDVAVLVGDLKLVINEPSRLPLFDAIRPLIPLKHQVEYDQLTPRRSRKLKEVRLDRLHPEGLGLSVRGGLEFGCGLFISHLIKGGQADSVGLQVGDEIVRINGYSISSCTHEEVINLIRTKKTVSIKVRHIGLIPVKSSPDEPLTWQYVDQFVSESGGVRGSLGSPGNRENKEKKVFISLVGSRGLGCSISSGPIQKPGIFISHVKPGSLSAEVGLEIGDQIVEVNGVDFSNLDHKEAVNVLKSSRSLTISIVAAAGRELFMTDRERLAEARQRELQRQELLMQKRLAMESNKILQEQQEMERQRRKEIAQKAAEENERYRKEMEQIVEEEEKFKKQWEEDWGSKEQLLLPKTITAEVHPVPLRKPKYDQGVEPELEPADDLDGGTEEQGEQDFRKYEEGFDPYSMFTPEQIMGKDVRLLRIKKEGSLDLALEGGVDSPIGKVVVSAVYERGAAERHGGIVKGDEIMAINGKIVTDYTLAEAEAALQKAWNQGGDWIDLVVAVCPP

Kd [1]: 1400 ± 600 nM
Kd [2]: 1000 nM
Kd [3]: 10000 ± 3000 nM
B1: Harmonin-a PDZ3c (GST removed, as used in ITC and crystallisation) (domain or fragment, human, UniProt Q9Y6N9-1 428-552, looked up)
chain: QDFRKYEEGFDPYSMFTPEQIMGKDVRLLRIKKEGSLDLALEGGVDSPIGKVVVSAVYERGAAERHGGIVKGDEIMAINGKIVTDYTLAEAEAALQKAWNQGGDWIDLVVAVCPPKEYDDELTFF
notes: Harmonin-a1 (USH1C), human, residues 428-552 of UniProt Q9Y6N9-1; also called PDZ3c (isoA); HarA PDZ3c; not shown: GST, N-terminal, cleaved

Kd [4]: > 100000 nM
Kd [5]: 68000 nM
B2: Harmonin-a PDZ3c F551V-F552V (domain or fragment, human, UniProt Q9Y6N9-1 428-552, looked up)
chain: QDFRKYEEGFDPYSMFTPEQIMGKDVRLLRIKKEGSLDLALEGGVDSPIGKVVVSAVYERGAAERHGGIVKGDEIMAINGKIVTDYTLAEAEAALQKAWNQGGDWIDLVVAVCPPKEYDDELTVV
notes: Harmonin-a1 (USH1C), human, residues 428-552 of UniProt Q9Y6N9-1; also called PDZ3c (isoA) F551V-F552V; source: E. coli BL21 (DE3) Rosetta, purified similarly as wild type

Kd [6]: 4200 nM
B3: YFP-Harmonin NPDZ1 (domain or fragment, human, UniProt Q9Y6N9-1 1-197, looked up)
chain: MDRKVAREFRHKVDFLIENDAEKDYLYDVLRMYHQTMDVAVLVGDLKLVINEPSRLPLFDAIRPLIPLKHQVEYDQLTPRRSRKLKEVRLDRLHPEGLGLSVRGGLEFGCGLFISHLIKGGQADSVGLQVGDEIVRINGYSISSCTHEEVINLIRTKKTVSIKVRHIGLIPVKSSPDEPLTWQYVDQFVSESGGVRG
notes: Harmonin-a1 (USH1C), human, residues 1-197 of UniProt Q9Y6N9-1; also called ^YFPNPDZ1; source: E. coli BL21 (DE3) Rosetta, purified (Glutathione Sepharose 4B, size-exclusion chromatography)

Binder: B4
Kd [4]: 2790 ± 790 nM
Kd [7]: 1880 nM
Kd [8]: 2000 nM
